This experiment has as its target miniTRIM37 RBhcc (human | T. thermophilus) (UniProt O94972). The experiment can be described thus: SEC-MALS. A general note: SEC sorts molecules by how far they enter the pores of the column.

“miniTRIM37 RBhcc (from UniProt O94972 1-158; O94972 214-254)” came in with a stoichiometry N of 2.

Usually stoichiometry N stands for the number of molecules, sites or subunits per partner or assembly.

For the origin of these results see publication PMC11482875.
